Assay results: PMC10873556, “G-quadruplex DNA structure is a positive regulator of MYC transcription”

What was measured:
SP1 [1] = target: T1, SP1 (human, UniProt P08047 1-785); assay: BLI; 100 nM SP1; negligible binding; BLI: 25 mM HEPES pH 7.5, 100 mM KCl, 12.5 mM MgCl2, 20% glycerol, 0.1% Igepal CA-630, 0.01 mM Zn(OAc)2, 1 mM DTT, 3% BSA, temperature not stated; pull-down: oligos annealed in 10 mM Tris-HCl pH 7.4 with (G4) or without (ds) 100 mM KCl; conditions: protein: recombinant
SP1 [2] = target: T1, SP1; assay: BLI; 100 mM KCl, 12.5 mM MgCl2, 0.01 mM Zn(OAc)2; apparent, most abundant population, 2:1 heterogeneous ligand fit; BLI: 25 mM HEPES pH 7.5, 100 mM KCl, 12.5 mM MgCl2, 20% glycerol, 0.1% Igepal CA-630, 0.01 mM Zn(OAc)2, 1 mM DTT, 3% BSA, temperature not stated; pull-down: oligos annealed in 10 mM Tris-HCl pH 7.4 with (G4) or without (ds) 100 mM KCl; conditions: protein: recombinant; intramolecular G4

T1 sequence (P08047 whole entry): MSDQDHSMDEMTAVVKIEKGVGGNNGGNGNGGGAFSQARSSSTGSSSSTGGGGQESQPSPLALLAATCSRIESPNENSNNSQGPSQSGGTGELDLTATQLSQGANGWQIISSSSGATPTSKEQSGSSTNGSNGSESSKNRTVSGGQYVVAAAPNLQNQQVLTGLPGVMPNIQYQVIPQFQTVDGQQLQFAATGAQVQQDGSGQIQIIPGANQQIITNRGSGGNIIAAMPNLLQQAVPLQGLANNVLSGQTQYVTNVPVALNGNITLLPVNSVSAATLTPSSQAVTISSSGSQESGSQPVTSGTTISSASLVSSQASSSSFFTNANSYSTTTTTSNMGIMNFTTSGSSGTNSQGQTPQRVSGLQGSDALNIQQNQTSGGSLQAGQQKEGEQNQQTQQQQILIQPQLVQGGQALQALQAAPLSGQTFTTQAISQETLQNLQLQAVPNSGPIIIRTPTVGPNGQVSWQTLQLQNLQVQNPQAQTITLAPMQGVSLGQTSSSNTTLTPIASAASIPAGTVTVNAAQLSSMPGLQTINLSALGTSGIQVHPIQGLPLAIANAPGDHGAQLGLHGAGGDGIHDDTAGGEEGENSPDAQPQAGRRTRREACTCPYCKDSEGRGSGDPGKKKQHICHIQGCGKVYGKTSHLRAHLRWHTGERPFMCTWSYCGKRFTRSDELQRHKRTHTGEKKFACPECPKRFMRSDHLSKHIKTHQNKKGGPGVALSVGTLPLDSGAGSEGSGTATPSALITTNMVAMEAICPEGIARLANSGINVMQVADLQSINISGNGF

Binder: TTTTTTAAGAGCGTTAAGAGCGTGAACAAGG (ssDNA) [MYC MUT ss]
- binding result (SP1 [1]): no binding

Binder: TTTTTGGGGAGGGTGGGGAGGGTGGGGAAGG (structured_DNA) [MYC G4 ss]
- Kd (SP1 [2]): 5.6 nM
